B1: A02_Rd4_6nM_C22 (antibody, V domains shown)
VH: EVQLLESGGGLVQPGGSLRLSCAASGFTFSSYAMNWVRQAPGKGLEWVSAVLDSGGSTYYADSVKGRFTISRDNSKNTLYLQMNSLRAEDTAVYYCARYWPMTPWGQGTLVTVSS
VL: EIVLTQSPGTLSLSPGERATLSCRASQSVSSSYLAWYQQKPGQAPRLLMYDASIRATGIPDRFSGSGSGTDFTLTISRLEPEDFAVYYCQQYQVWPLTFGQGTKVEIK
notes: IgG
B2: C01_Rd4_6nM_C12 (antibody, V domains shown)
VH: B1 VH with A33P, N35S, V51I, L52G, D53G, S57W, T58S, T103D, P104S
VL: B1 VL with R24W, A25L, S32T, M49I, I54S, T57P, Q93S, V94E
notes: IgG; also called PC1C12
B3: COMBO_Rd4_0.6nM_C19 (antibody, V domains shown)
VH: B1 VH with A33P, N35S, V51I, L52G, D53G, T58L, Y59P, T103D, P104S
VL: B1 VL with S31A, S32V, Q93R, V94A
notes: IgG
B4: C01_Rd4_0.6nM_C27 (antibody, V domains shown)
VH: B1 VH with A33P, N35S, V51I, L52G, D53G, T58L, Y59P, T103D, P104S
VL: B1 VL with S32T, M49I, I54S, T57P, Q93S, V94R
notes: IgG
B5: COMBO_Rd4_0.6nM_C14 (antibody, V domains shown)
VH: B1 VH with A33P, N35S, V51I, L52G, D53G, T58L, Y59P, T103D, P104I
VL: B1 VL with S31A, S32L, Q93Y, V94G
notes: IgG
B6: C01_Rd4_6nM_C20 (antibody, V domains shown)
VH: B1 VH with A33P, N35S, V51I, L52G, D53G, T58L, Y59P, T103D, P104S
VL: B1 VL with S31P, S32L, M49I, I54S, T57P, Q93S, V94A, W95F
notes: IgG
B7: COMBO_Rd4_0.6nM_C05 (antibody, V domains shown)
VH: B1 VH with V51I, L52G, D53G, T103S, P104L
VL: B1 VL with S32T, Q93M, V94S
notes: IgG
B8: C01_Rd4_6nM_C24 (antibody, V domains shown)
VH: B1 VH with A33P, N35S, V51I, L52G, D53G, T58L, Y59P, T103D, P104S
VL: B1 VL with S31P, S32E, M49I, I54S, T57P, Q93S
notes: IgG
B9: COMBO_Rd4_0.6nM_C04 (antibody, V domains shown)
VH: B1 VH with A33P, N35S, V51H, L52I, D53G, T103D, P104S
VL: B1 VL with S32T, V94S
notes: IgG
B10: C01_Rd4_6nM_C10 (antibody, V domains shown)
VH: B1 VH with A33P, N35S, V51I, L52G, D53G, T58L, Y59P, T103D, P104S
VL: B1 VL with S32V, M49I, I54S, T57P, Q93S, V94T
notes: IgG
B11: A02_Rd4_6nM_C23 (antibody, V domains shown)
VH: B1 VH with V51I, L52S, T58G, Y59W, T103S, P104L
VL: B1 VL with S31V, S32E, Q93A, V94R
notes: IgG
B12: C01_Rd4_6nM_C09 (antibody, V domains shown)
VH: B1 VH with A33P, N35S, V51T, L52V, D53G, T58I, Y59G, T103D, P104S
VL: B1 VL with R24A, A25C, S32T, M49I, I54S, T57P, Q93S, V94A
notes: IgG
B13: COMBO_Rd4_0.6nM_C11 (antibody, V domains shown)
VH: B1 VH with A33P, N35S, V51A, D53G, T103S, P104L
VL: B1 VL with S31V, S32R, Q93G, V94S, L97I
notes: IgG
B14: COMBO_Rd4_0.6nM_C17 (antibody, V domains shown)
VH: B1 VH with A33P, N35S, V51I, L52G, D53G, T58L, Y59P, T103D, P104I
VL: B1 VL with S28G, V29I, S32T, Q93A, V94Y
notes: IgG
B15: COMBO_Rd4_0.6nM_C09 (antibody, V domains shown)
VH: B1 VH with A33P, N35S, V51I, L52G, D53G, T58L, Y59P, T103D, P104I
VL: B1 VL with S32T, V94E
notes: IgG
B16: C01_Rd4_0.6nM_C03 (antibody, V domains shown)
VH: B1 VH with A33P, N35S, V51I, L52G, D53G, T58L, Y59P, T103D, P104S
VL: B1 VL with Q27C, S28D, S32T, M49I, I54S, T57P, Q93M, V94R, W95S
notes: IgG
B17: C01_Rd4_0.6nM_C16 (antibody, V domains shown)
VH: B1 VH with A33P, N35S, V51I, L52G, D53G, T58L, Y59P, T103D, P104S
VL: B1 VL with S32T, M49I, I54S, T57P, Q93S, V94S
notes: IgG
B18: C01_Rd4_6nM_C04 (antibody, V domains shown)
VH: B1 VH with A33P, N35S, V51I, L52G, D53G, T58L, Y59P, T103D, P104S
VL: B1 VL with R24C, A25S, S32T, M49I, I54S, T57P, Q93S, V94A, W95F
notes: IgG
B19: C01_Rd4_0.6nM_C06 (antibody, V domains shown)
VH: B1 VH with A33P, N35S, V51I, L52G, D53G, T58L, Y59P, T103D, P104S
VL: B1 VL with Q27E, S28A, S30P, S32T, M49I, I54S, T57P, Q93S, V94A, W95F
notes: IgG
B20: A02_Rd4_6nM_C26 (antibody, V domains shown)
VH: B1 VH with V51I, L52S, T103S, P104L
VL: B1 VL with S32L
notes: IgG
B21: C01_Rd4_0.6nM_C09 (antibody, V domains shown)
VH: B1 VH with A33P, N35S, V51I, L52G, D53G, T58L, Y59P, T103D, P104S
VL: B1 VL with S32L, Y33F, M49I, I54S, T57P, Q93S, V94A
notes: IgG
B22: A02_Rd4_6nM_C25 (antibody, V domains shown)
VH: B1 VH with V51I, L52S, T58R, Y59W
VL: B1 VL with Q93L, V94D
notes: IgG
B23: COMBO_Rd4_0.6nM_C02 (antibody, V domains shown)
VH: B1 VH with A33P, N35S, V51I, L52G, D53G, T58L, Y59P, T103D, P104S
VL: B1 VL with Q27I, S28A, S32T, Q93M
notes: IgG
B24: C01_Rd4_6nM_C26 (antibody, V domains shown)
VH: B1 VH with A33P, N35S, V51I, L52G, D53G, T58L, Y59P, T103D, P104S
VL: B1 VL with S31A, S32L, M49I, I54S, T57P, Q93S, V94A
notes: IgG

Numbering of substitutions follows the chain as printed.

One test deals with Human BCMA (human) (UniProt Q02223). Put plainly: SPR, IgG on chip, huBCMA analyte.
B1 had a Kd of 0.054 nM, a koff of 0.000182 s⁻¹ and a kon of 3.38e+06 M⁻¹ s⁻¹.
Taken in the same sequence, the figures for B2 were 0.535 nM, 0.00649 s⁻¹ and 1.21e+07 M⁻¹ s⁻¹.
B3 yielded a Kd of 0.02 nM, a koff of 0.000155 s⁻¹ and a kon of 7.86e+06 M⁻¹ s⁻¹.
In the case of B4, the Kd amounted to 0.303 nM, the koff came out at 0.00374 s⁻¹ and the kon amounted to 1.23e+07 M⁻¹ s⁻¹.
Turning to B5, the Kd was 0.038 nM, the koff was determined as 0.000328 s⁻¹ and the kon came out at 8.66e+06 M⁻¹ s⁻¹.
For B6, the Kd stood at 0.459 nM, the koff stood at 0.00276 s⁻¹ and the kon stood at 6.02e+06 M⁻¹ s⁻¹.
On to B7, for which the Kd is 0.115 nM, the koff was 0.000497 s⁻¹ and the kon was 4.32e+06 M⁻¹ s⁻¹.
For B8, the Kd amounted to 0.467 nM, the koff was found to be 0.00348 s⁻¹ and the kon worked out at 7.47e+06 M⁻¹ s⁻¹.
As for B9, the Kd came to 0.015 nM, the koff turned out to be 0.000158 s⁻¹ and the on-rate (kon) was 1.07e+07 M⁻¹ s⁻¹.
In turn, B10 came in with a Kd of 0.162 nM, a koff of 0.00212 s⁻¹ and a kon of 1.31e+07 M⁻¹ s⁻¹.
B11 displayed a Kd of 0.021 nM, a koff of 0.000255 s⁻¹ and a kon of 1.22e+07 M⁻¹ s⁻¹.
Consider B12, for which the Kd was 0.811 nM, the koff was determined as 0.0128 s⁻¹ and the kon was 1.58e+07 M⁻¹ s⁻¹.
B13 returned a Kd of 0.207 nM, a koff of 0.00106 s⁻¹ and a kon of 5.11e+06 M⁻¹ s⁻¹.
Taken in the same sequence, the figures for B14 were 0.092 nM, 0.000801 s⁻¹ and 8.68e+06 M⁻¹ s⁻¹.
The molecule B15 displayed a Kd of 0.031 nM, a koff of 0.000319 s⁻¹ and a kon of 1.04e+07 M⁻¹ s⁻¹.
Taken in the same sequence, the figures for B16 were 0.964 nM, 0.015 s⁻¹ and 1.55e+07 M⁻¹ s⁻¹.
With B17, the Kd was determined as 0.407 nM, the koff turned out to be 0.0063 s⁻¹ and the kon stood at 1.55e+07 M⁻¹ s⁻¹.
Turning to B18, the Kd is 2.13 nM, the koff worked out at 0.0497 s⁻¹ and the kon was 2.33e+07 M⁻¹ s⁻¹.
With B19, the Kd stood at 0.847 nM, the koff was 0.0154 s⁻¹ and the kon came to 1.82e+07 M⁻¹ s⁻¹.
Consider B20, for which the Kd was found to be 0.033 nM, the koff is 0.000139 s⁻¹ and the kon came to 4.26e+06 M⁻¹ s⁻¹.
As to B21, the Kd was 0.545 nM, the koff came out at 0.00825 s⁻¹ and the kon was 1.51e+07 M⁻¹ s⁻¹.
With B22, the Kd was determined as 0.065 nM, the koff is 0.00018 s⁻¹ and the kon came to 2.75e+06 M⁻¹ s⁻¹.
B23: the Kd is 0.022 nM, the koff worked out at 0.000185 s⁻¹ and the kon is 8.57e+06 M⁻¹ s⁻¹.
As for B24, the Kd was found to be 0.09 nM, the koff was determined as 0.00136 s⁻¹ and the kon amounted to 1.5e+07 M⁻¹ s⁻¹.

In a further test the target is T1, cynomolgus monkey BCMA (cynomolgus monkey, UniProt A0A2K5UD97 1-53).
T1 construct: Soluble analyte in SPR; construct not described; also called cyBCMA; Cyno BCMA
T1 sequence (A0A2K5UD97 entry or part of it): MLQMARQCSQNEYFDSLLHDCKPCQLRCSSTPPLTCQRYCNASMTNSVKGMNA
Put plainly: SPR, IgG on chip, cyBCMA analyte.
On to B1, for which the affinity, expressed as Kd, was 0.176 nM; the koff came to 0.000324 s⁻¹; the kon was determined as 1.84e+06 M⁻¹ s⁻¹.
Taken in the same sequence, the figures for B2 were 0.82 nM, 0.0037 s⁻¹ and 4.51e+06 M⁻¹ s⁻¹.
Take B3: the Kd stood at 0.336 nM, the koff turned out to be 0.000979 s⁻¹ and the kon was 2.92e+06 M⁻¹ s⁻¹.
In turn, B4 yielded a Kd of 0.852 nM, a koff of 0.00285 s⁻¹ and a kon of 3.34e+06 M⁻¹ s⁻¹.
As for B5, binding was characterised by a dissociation constant (Kd) of 0.185 nM, the koff turned out to be 0.000645 s⁻¹ and the kon was 3.48e+06 M⁻¹ s⁻¹.
B6 displayed a Kd of 1.74 nM, a koff of 0.00625 s⁻¹ and a kon of 3.6e+06 M⁻¹ s⁻¹.
B7 came in with a Kd of 0.886 nM, a koff of 0.00172 s⁻¹ and a kon of 1.94e+06 M⁻¹ s⁻¹.
Taken in the same sequence, the figures for B8 were 0.281 nM, 0.000891 s⁻¹ and 3.17e+06 M⁻¹ s⁻¹.
The molecule B9 returned a Kd of 0.039 nM, a koff of 0.000137 s⁻¹ and a kon of 3.52e+06 M⁻¹ s⁻¹.
Molecule B10 had a Kd of 0.493 nM, a koff of 0.00219 s⁻¹ and a kon of 4.44e+06 M⁻¹ s⁻¹.
Taken in the same sequence, the figures for B11 were 0.157 nM, 0.000414 s⁻¹ and 2.63e+06 M⁻¹ s⁻¹.
With B12, the Kd turned out to be 2.33 nM, the koff amounted to 0.00868 s⁻¹ and the kon amounted to 3.73e+06 M⁻¹ s⁻¹.
Taken in the same sequence, the figures for B13 were 1.92 nM, 0.00423 s⁻¹ and 2.2e+06 M⁻¹ s⁻¹.
For the molecule B14, binding was characterised by a dissociation constant (Kd) of 0.33 nM, the koff was 0.00101 s⁻¹ and the kon came to 3.06e+06 M⁻¹ s⁻¹.
Consider B15, for which the Kd was 0.092 nM, the koff came out at 0.000346 s⁻¹ and the kon is 3.77e+06 M⁻¹ s⁻¹.
Taken in the same sequence, the figures for B16 were 2.53 nM, 0.0119 s⁻¹ and 4.72e+06 M⁻¹ s⁻¹.
Take B17: the Kd turned out to be 0.939 nM, the koff amounted to 0.00464 s⁻¹ and the kon turned out to be 4.95e+06 M⁻¹ s⁻¹.
Taken in the same sequence, the figures for B18 were 5.16 nM, 0.0327 s⁻¹ and 6.34e+06 M⁻¹ s⁻¹.
In turn, B19 had a Kd of 1.95 nM, a koff of 0.0121 s⁻¹ and an association rate constant (kon) of 6.22e+06 M⁻¹ s⁻¹.
Regarding B20, the affinity, expressed as Kd, was 0.203 nM; the koff stood at 0.000448 s⁻¹; the kon stood at 2.21e+06 M⁻¹ s⁻¹.
In turn, B21 showed a Kd of 1.77 nM, a koff of 0.00936 s⁻¹ and a kon of 5.28e+06 M⁻¹ s⁻¹.
Molecule B22 came in with a Kd of 0.22 nM, a koff of 0.00033 s⁻¹ and a kon of 1.5e+06 M⁻¹ s⁻¹.
Turning to B23, binding was characterised by a dissociation constant (Kd) of 0.164 nM, the koff turned out to be 0.000494 s⁻¹ and the kon came out at 3.01e+06 M⁻¹ s⁻¹.
Turning to B24, the Kd came to 0.419 nM, the koff is 0.00199 s⁻¹ and the kon stood at 4.75e+06 M⁻¹ s⁻¹.
